The text below walks through data of PMC3508296.

This assay concerns the target fibronectin (UniProt P02751). As to the kind of experiment: SPR.

Chain of fibronectin (P02751 32-2477): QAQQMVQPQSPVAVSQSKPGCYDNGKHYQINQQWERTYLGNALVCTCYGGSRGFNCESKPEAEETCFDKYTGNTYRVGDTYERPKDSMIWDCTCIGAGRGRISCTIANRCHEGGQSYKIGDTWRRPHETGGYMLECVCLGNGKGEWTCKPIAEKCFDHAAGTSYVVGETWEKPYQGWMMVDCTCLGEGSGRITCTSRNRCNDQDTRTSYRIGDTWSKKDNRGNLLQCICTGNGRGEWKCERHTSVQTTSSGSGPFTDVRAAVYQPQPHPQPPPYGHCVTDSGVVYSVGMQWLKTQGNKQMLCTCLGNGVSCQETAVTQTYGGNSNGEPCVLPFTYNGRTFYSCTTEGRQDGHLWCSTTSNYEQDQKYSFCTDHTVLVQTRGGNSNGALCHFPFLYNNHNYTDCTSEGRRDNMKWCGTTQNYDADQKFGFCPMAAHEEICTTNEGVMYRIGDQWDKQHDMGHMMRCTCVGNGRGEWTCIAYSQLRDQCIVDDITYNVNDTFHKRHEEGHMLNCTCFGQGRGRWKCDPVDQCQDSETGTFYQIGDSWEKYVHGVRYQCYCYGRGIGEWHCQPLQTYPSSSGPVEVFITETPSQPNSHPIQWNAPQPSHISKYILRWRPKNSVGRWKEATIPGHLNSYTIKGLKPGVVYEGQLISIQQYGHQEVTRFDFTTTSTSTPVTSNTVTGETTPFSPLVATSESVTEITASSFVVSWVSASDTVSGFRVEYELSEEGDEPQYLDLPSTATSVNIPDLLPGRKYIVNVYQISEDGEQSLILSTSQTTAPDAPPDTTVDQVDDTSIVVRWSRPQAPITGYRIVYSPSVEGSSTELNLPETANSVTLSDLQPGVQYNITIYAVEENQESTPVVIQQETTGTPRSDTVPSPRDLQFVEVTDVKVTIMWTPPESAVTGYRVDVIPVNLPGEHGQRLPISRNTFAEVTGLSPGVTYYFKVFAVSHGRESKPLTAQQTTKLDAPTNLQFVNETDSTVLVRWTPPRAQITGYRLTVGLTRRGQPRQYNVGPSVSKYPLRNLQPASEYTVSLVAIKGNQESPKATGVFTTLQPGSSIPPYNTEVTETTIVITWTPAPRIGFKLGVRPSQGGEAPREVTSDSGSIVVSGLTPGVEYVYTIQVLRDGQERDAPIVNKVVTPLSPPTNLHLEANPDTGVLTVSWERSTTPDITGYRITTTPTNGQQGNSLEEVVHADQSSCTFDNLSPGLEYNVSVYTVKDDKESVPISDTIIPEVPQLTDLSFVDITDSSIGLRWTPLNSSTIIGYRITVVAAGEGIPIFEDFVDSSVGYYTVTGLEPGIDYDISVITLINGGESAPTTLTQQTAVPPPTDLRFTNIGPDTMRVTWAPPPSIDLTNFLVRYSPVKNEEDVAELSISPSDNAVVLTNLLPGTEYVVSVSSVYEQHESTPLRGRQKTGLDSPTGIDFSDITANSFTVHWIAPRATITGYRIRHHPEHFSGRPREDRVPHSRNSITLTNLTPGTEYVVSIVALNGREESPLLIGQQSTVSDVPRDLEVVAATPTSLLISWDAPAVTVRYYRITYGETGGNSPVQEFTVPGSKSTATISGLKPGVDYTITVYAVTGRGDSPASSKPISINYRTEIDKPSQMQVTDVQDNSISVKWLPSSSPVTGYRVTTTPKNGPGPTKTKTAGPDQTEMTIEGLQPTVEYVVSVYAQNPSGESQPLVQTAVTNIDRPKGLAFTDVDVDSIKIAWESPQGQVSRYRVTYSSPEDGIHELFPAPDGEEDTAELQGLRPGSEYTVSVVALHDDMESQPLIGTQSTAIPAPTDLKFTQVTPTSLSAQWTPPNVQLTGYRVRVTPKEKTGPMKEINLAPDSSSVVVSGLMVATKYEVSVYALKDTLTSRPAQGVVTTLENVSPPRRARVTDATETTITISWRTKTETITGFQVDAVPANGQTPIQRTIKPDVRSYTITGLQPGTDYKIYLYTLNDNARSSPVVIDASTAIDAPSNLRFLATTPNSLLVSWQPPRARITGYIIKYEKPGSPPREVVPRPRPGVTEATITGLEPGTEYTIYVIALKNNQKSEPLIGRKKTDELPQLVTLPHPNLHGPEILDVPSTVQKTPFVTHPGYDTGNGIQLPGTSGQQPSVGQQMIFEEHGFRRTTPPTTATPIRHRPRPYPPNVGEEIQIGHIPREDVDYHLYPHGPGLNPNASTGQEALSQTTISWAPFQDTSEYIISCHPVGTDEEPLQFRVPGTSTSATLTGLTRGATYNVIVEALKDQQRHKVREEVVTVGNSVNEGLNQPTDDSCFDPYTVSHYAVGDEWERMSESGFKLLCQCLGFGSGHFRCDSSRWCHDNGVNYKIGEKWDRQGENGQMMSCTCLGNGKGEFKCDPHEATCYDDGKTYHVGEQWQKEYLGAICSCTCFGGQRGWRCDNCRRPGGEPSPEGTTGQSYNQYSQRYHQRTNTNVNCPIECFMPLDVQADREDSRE

Take “BB0347 (natural protein; other documents disagree on this pair)”: the Kd was 640 nM, the koff was determined as 0.16 s⁻¹ and the kon amounted to 265000 M⁻¹ s⁻¹.
In the case of “BBK32 (from UniProt O50835 1-354) (natural protein; other documents disagree on this pair)”, the Kd was determined as 19 nM, the koff was found to be 0.1 s⁻¹, the kon stood at 5.21e+06 M⁻¹ s⁻¹ and the t1/2 (calculated from Koff) was 6.93 s.

Usually Kd stands for the equilibrium constant for the complex coming apart. A high value points to a looser complex. For orientation: koff means the first-order rate constant of dissociation. In general, kon refers to the second-order rate constant of association. A lower kon goes with slower complex formation.
